Results: patent US20260176344A1 (SUZHOU ALPHAMAB, published 2026)

How the values were obtained:
[1] = biological target: T1, Control-2 (C2), a laFc-containing fusion protein; test: phage supernatant ELISA, coated control protein, anti-HA HRP, A450-A650
T1 construct: Negative panning and ELISA control

[2] = biological target: T2, GIPR-ECD-laFc (an alpaca Fc-fused human GIPR extracellular region fragment) (human, UniProt P48546 22-138); test: phage supernatant ELISA, coated antigen, anti-HA HRP, A450-A650
T2 construct: extracellular domain; not shown: alpaca Fc
T2 sequence (looked up): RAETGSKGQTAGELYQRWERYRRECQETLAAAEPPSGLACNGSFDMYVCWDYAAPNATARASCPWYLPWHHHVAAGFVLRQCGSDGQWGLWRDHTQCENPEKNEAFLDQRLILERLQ

[3] = biological target: T3, Control-1 (C1), a muFc-containing fusion protein; test: phage supernatant ELISA, coated control protein, anti-HA HRP, A450-A650
T3 construct: Negative panning and ELISA control

[4] = biological target: T4, GIPR-ECD-chis (a his tag-fused human GIPR extracellular region fragment) (human, UniProt P48546 22-138, limits assumed); test: BLI, antibody on AHC sensor, GIPR-ECD-chis in solution
T4 construct: extracellular domain; not shown: his tag
T4 sequence (looked up): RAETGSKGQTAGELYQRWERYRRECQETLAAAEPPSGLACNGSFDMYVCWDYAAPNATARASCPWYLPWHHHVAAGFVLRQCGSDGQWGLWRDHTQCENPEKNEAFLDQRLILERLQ

[5] = biological target: T5, human GIPR expressed on HEK293T cells (human, UniProt P48546 22-466); test: cell binding on 293T-GIPR cells, anti-human SULFO-TAG secondary antibody, MSD read-out plotted as MFI
T5 construct: whole, on cells; Two cell lines are used (293T-GIPR; 293T-GIPRFL-GFP-PURO-5, stably expressing full-length human GIPR on the membrane); both are treated as human GIPR on cells; also called 293T-GIPR; 293T-GIPRFL-GFP-PURO-5
T5 sequence (looked up): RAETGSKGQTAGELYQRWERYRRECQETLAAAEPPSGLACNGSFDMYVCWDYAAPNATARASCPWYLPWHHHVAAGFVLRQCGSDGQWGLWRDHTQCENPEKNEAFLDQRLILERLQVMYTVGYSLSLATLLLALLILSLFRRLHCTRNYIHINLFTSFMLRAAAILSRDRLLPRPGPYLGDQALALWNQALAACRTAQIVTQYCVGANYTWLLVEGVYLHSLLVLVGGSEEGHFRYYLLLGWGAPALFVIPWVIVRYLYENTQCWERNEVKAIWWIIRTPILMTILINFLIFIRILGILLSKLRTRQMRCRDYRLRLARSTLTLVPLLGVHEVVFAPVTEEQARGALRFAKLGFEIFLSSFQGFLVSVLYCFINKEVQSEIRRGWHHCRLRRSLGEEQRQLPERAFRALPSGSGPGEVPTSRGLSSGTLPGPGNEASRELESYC

[6] = biological target: T5, human GIPR expressed on HEK293T cells; test: cell-based or functional assay

B1: iGI-1198 (VHH)
VHH: QVQLQESGGGLVQPGGSLRLSCVASGSGFSIVAMGWYRQTPGKQRELVAAITSGGNTNYADSVKGRFTISRDNAKNTIYLQMNSLKPEDTAVYYCNADPGVVAGPYAGMDFWGKGTQVTVSS
notes: Tested as supernatant of a helper-phage-rescued clone (pComb3XSS), detected by anti-HA tag
- OD value [1]: 0.027 OD
- OD value [2]: 1.95 OD

B2: iGI-27 (VHH)
VHH: QVQLVESGGALVQTGGSLRLFCAASGDTICITNMNWYRQAPGKGREFVAAITRSGRTLYADYVKGRFTISRDNARNTMSLQMNSMTSEDTAVYYCNADQNQTICAAEPSAWGRGTQVTVSS
notes: as for B1
- OD value [3]: 0.018 OD
- OD value [1]: 0.023 OD
- OD value [2]: 2.23 OD

B3: iGI-72 (VHH)
VHH: QVQLVESGGGLVQPGGSLRLSCAASRYTLDYYAIGWFRQAPGKEREGVSCINSKDGSTYYADSVKGRFTISKDNAKNTVYLQMNSLKPEDTAVYYCAAGYDPWSGIPPVQAMCVMGYDYWGQGTQVTVSS
notes: as for B1
- OD value [3]: 0.019 OD
- OD value [1]: 0.077 OD
- OD value [2]: 2.2 OD

B4: iGI-9 (VHH)
VHH: QVQLVESGGGLVQPGGSLRLSCETSKILFSSAYTMGWYRQAPGKQRELVATITTDYITNYVDSVKGRFTISRDNAKNTVYLQMNTLKLEDTAVYYCNARWGRDYWGQGTQVTVSS
notes: as for B1
- OD value [3]: 0.018 OD
- OD value [1]: 0.028 OD
- OD value [2]: 2.21 OD

B5: Maridebart (antibody, V domains shown)
VH: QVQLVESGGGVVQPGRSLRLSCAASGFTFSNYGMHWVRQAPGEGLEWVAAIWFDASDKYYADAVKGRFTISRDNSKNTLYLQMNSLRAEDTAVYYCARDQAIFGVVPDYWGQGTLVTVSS
VL: EIVMTQSPATLSVSPGERATLSCRASQSVSSNLAWYQQKPGQAPRLLIYGAATRATGIPARVSGSGSGTEFTLTISSLQSEDFAVYYCQQYNNWPLTFGGGTKVEIK
- Kd [4]: 16.3 nM
- koff [4]: 0.00222 s⁻¹
- kon [4]: 136000 M⁻¹ s⁻¹
- EC50 [5]: 1.18 nM
- EC50 of the inhibition rate (%) of GIP-induced cAMP expression in 293T-GIPR cells [6]: 0.351 µg/mL

B6: iGI-44 (VHH)
VHH: QVQLVESGGGLVQAGGSLKLSCAASGRTFSSKAMGWFRQAPGKEREFVAAINWSGDRTYHVNSIKGRFTISRDNAKNTVYLQMNSLKPEDTAVYYCTADRRDRATIPFQWHYWGQGTQVTVSS
notes: as for B1
- OD value [3]: 0.018 OD
- OD value [1]: 0.023 OD
- OD value [2]: 2.31 OD

B7: iGI-51 (VHH)
VHH: QVQLVESGGKLVQAGGSLRLDCVASGRTFSYYAIGWYRQAPGKEREFVAAIRASGGSTYYADSVKGRFTASRDNAKNTGYLQMNSLKPEDTAVYFCYAATIVPITPSTHGYWGQGTQVTVSS
notes: as for B1
- OD value [3]: 0.042 OD
- OD value [1]: 0.027 OD
- OD value [2]: 2.17 OD
